The data set concerns the molecule itself. In words: crystal structure.

B1: Catabolite Activator Protein (CAP) (natural protein)
chain: VLGKPQTDPTLEWFLSHCHIHKYPSKSTLIHQGEKAETLYYIVKGSVAVLIKDEEGKEMILSYLNQGDFIGELGLFEEGQERSAWVRAKTACEVAEISYKKFRQLIQVNPDILMRLSAQMARRLQVTSEKVGNLAFLDVTGRIAQTLLNLAKQPDAMTHPDGMQIKITRQEIGQIVGCSRETVGRILKMLEDQNLISAHGKTIVVYGTR
B1: the binding result was “binds”.

For the origin of these results see publication PMC8100869 (Biochemistry, 2020).
